Biological target: T1, recombinant B. taurus beta casein with HA tag, 6 histidine tag and HDEL peptide, produced by pMOZ702 in N. benthamiana leaf
T1 chain: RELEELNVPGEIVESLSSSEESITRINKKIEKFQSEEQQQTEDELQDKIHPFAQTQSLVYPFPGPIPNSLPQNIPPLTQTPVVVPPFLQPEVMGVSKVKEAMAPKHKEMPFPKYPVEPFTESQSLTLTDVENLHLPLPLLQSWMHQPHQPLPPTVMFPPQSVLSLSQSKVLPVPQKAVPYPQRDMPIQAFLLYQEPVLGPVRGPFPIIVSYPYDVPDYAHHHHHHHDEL

B1: recombinant H. sapiens Fam20A expressed from pMOZ12 (protein)
chain: QLRPRERPRGCPCTGRASSLARDSAAAASDPGTIVHNFSRTEPRTEPAGGSHSGSSSKLQALFAHPLYNVPEEPPLLGAEDSLLASQEALRYYRRKVARWNRRHKMYREQMNLTSLDPPLQLRLEASWVQFHLGINRHGLYSRSSPVVSKLLQDMRHFPTISADYSQDEKALLGACDCTQIVKPSGVHLKLVLRFSDFGKAMFKPMRQQRDEETPVDFFYFIDFQRHNAEIAAFHLDRILDFRRVPPTVGRIVNVTKEILEVTKNEILQSVFFVSPASNVCFFAKCPYMCKTEYAVCGNPHLLEGSLSAFLPSLNLAPRLSVPNPWIRSYTLAGKEEWEVNPLYCDTVKQIYPYNNSQRLLNVIDMAIFDFLIGNMDRHHYEMFTKFGDDGFLIHLDNARGFGRHSHDEISILSPLSQCCMIKKKTLLHLQLLAQADYRLSDVMRESLLEDQLSPVLTEPHLLALDRRLQTILRTVEGCIVAHGQQSVIVDGPVEQLAPDSGQANLTSHDEL
  Western blot band migration of beta casein; HsFam20A coexpressed together with HsFam20C in tobacco leaf (FIG. 19, lanes 3 and 4): In lanes containing beta casein coexpressed with the human kinases the bands are shifted upward on the gel relative to the sample transformed with only beta casein
  Western blot band migration of beta casein; HsFam20A coexpressed together with HsFam20C in tobacco leaf (FIG. 20, lane 8, '2 human kinases'): In lanes containing beta casein coexpressed with 1 human kinase, 2 human kinases, 1 bovine kinase or 2 bovine kinases the bands are shifted upward on the gel relative to the sample transformed with only beta casein

B2: recombinant H. sapiens Fam20C expressed from pMOZ11 (protein)
chain: LDLLPRLERRGARPSGEPGCSCAQPAAEVAAPGWAQVRGRPGEPPAASSAAGDAGWPNKHTLRILQDFSSDPSSNLSSHSLEKLPPAAEPAERALRGRDPGALRPHDPAHRPLLRDPGPRRSESPPGPGGDASLLARLFEHPLYRVAVPPLTEEDVLFNVNSDTRLSPKAAENPDWPHAGAEGAEFLSPGEAAVDSYPNWLKFHIGINRYELYSRHNPAIEALLHDLSSQRITSVAMKSGGTQLKLIMTFQNYGQALFKPMKQTREQETPPDFFYFSDYERHNAEIAAFHLDRILDFRRVPPVAGRMVNMTKEIRDVTRDKKLWRTFFISPANNICFYGECSYYCSTEHALCGKPDQIEGSLAAFLPDLSLAKRKTWRNPWRRSYHKRKKAEWEVDPDYCEEVKQTPPYDSSHRILDVMDMTIFDFLMGNMDRHHYETFEKFGNETFIIHLDNGRGFGKYSHDELSILVPLQQCCRIRKSTYLRLQLLAKEEYKLSLLMAESLRGDQVAPVLYQPHLEALDRRLRVVLKAVRDCVERNGLHSVVDDDLDTEHRAASARHDEL
  Western blot band migration of beta casein; HsFam20C alone coexpressed in tobacco leaf (FIG. 20, lane 5, '1 human kinase'): In lanes containing beta casein coexpressed with 1 human kinase, 2 human kinases, 1 bovine kinase or 2 bovine kinases the bands are shifted upward on the gel relative to the sample transformed with only beta casein
  Western blot band migration of beta casein; HsFam20C coexpressed together with HsFam20A in tobacco leaf (FIG. 19, lanes 3 and 4): In lanes containing beta casein coexpressed with the human kinases the bands are shifted upward on the gel relative to the sample transformed with only beta casein
  Western blot band migration of beta casein; HsFam20C coexpressed together with HsFam20A in tobacco leaf (FIG. 20, lane 8, '2 human kinases'): In lanes containing beta casein coexpressed with 1 human kinase, 2 human kinases, 1 bovine kinase or 2 bovine kinases the bands are shifted upward on the gel relative to the sample transformed with only beta casein

B3: recombinant B. taurus Fam20C expressed from pMOZ14 (protein)
chain: MLLPKLERSAARPSGEPGCSCAQPAAEAAAPGWAQARGHPGGELEAAASAAGDAGWPNKHTLRILQDFSSDPSSNLTSHSLEKLPPAAEAAEGAPPGQDPGVRRPPDPAHRPLPRDPGPRGPVLPPGLSGDGSLLTRLFQHPLYQVPIPPLTEGDVLFNVNSDIRFNPKAATAENPDWPHEGPEDEFLPTGEAAVDSYPNWLKFHIGINRYELYSRHNPAVGALLQDLGTQKITSVAMKSGGTQLKLIMTFQNYGQALFKPMKQTREQETPPDFFYFSDYERHNAEIAAFHLDRILDFRRVPPVAGRLVNMTKEIRDVTRDKKLWRTFFISPANNVCFYGECSYYCSTEHALCGKPDQIEGSLAAFLPDLALAKRKTWRNPWRRSYHKRKKAEWEVDPDYCEEVRQTPPYDSSHRLLDVMDMTIFDFLMGNMDRHHYETFEKFGNETFIIHLDNGRGFGKHSHDELSILVPLQQCCRIRRSTYLRLQLLAQEEHRLSLLMAEALRADRVAPVLFQPHLEALDRRLRIVLRAVGDCVEKDGLHSVVEDDLGPEHRAAAGRHDEL
  Western blot band migration of beta casein; BtFam20C coexpressed together with BtFam20A in tobacco leaf (FIG. 20, lane 7, '2 bovine kinases'): In lanes containing beta casein coexpressed with 1 human kinase, 2 human kinases, 1 bovine kinase or 2 bovine kinases the bands are shifted upward on the gel relative to the sample transformed with only beta casein

B4: recombinant B. taurus Fam20A expressed from pMOZ15 (protein)
chain: MHVSSHLGPRVRSRLQPRERPLGCPCARRAASPAPGPAPSAPRRVEPSGGGDPGSKLRALFAHPLYNEPEEPPLLGPEDSLLAGPEALRYYRRKVARWNRRRKMYKEQLNLTSPEPPVQLRQEASWVQFHLGINRHGLYPRSSPVVSKLLQDMRHFPTISADYSQDEKALLGACDCSQIVKPSGVHLKLVLRFSDFGKAMFKPMRQQRDEETPEDFFYFIDFQRHNAEIAAFHLDRILDFRRVPPTVGRLVNVTREILEVTRNEILQSVFFVSPANNVCFFAKCPYMCKTEYAVCGSPHLLEGSLSAFLPSLNLAPRFSMPSPWIRSYSLAGREEWEVNPLYCEAVKQAYPHNSSSRLLNIIDMAIFDFLIGNMDRHHYEMFTKFGEDGFLIHLDNARGFGRHSHDEVSILAPLFQCCRIKRKTLLHLQLLAQADYRLSDVMRESLLEDQLSPVLTEPHLLALDRRLQTVLRTVQDCIEAHGEQSVVADGPVGQWAPDSSRANATSHDEL
  Western blot band migration of beta casein; BtFam20A coexpressed together with BtFam20C in tobacco leaf (FIG. 20, lane 7, '2 bovine kinases'): In lanes containing beta casein coexpressed with 1 human kinase, 2 human kinases, 1 bovine kinase or 2 bovine kinases the bands are shifted upward on the gel relative to the sample transformed with only beta casein

Reference: patent US20220290167
